From US20140127211A1 (Pfizer, published 2014)
Read-outs that look alike come from different tables or passages of the source.

What was measured:
[1] = biological target: T1, full-length human Notch3 expressed on the cell surface (human, UniProt Q9UM47 40-2321); assay: cell-based or functional assay
[2] = biological target: T2, mouse Notch3 NRR recombinant protein (Notch3 NRR_Avi_His tag) (mouse); assay: ELISA, recombinant protein, hybridoma supernatant
T2 construct: The entry includes the C-terminal Avi and His tag; S1-cleaved heterodimer as for the human protein
T2 chain: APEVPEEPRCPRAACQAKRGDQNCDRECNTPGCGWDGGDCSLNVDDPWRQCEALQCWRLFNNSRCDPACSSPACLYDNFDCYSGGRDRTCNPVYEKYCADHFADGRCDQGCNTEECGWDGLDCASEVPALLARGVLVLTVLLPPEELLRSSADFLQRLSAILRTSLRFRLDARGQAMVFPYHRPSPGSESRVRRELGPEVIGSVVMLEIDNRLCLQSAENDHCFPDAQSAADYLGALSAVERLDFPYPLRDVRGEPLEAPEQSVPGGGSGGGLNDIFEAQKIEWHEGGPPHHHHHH

[3] = biological target: T3, human Notch3 NRR recombinant protein (Notch3 NRR_Avi_His tag) (human); assay: ELISA, recombinant protein, hybridoma supernatant
T3 construct: Purified from CHO-PACE cells; the entry includes the C-terminal Avi and His6 tag
T3 chain: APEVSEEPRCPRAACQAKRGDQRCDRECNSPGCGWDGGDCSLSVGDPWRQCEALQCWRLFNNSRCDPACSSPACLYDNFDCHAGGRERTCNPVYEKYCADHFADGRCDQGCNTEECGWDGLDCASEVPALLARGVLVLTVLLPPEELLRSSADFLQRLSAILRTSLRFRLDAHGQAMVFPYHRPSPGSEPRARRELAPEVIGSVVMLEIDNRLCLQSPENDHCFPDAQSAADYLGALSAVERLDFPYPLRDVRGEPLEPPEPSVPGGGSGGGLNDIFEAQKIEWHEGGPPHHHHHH

[4] = biological target: T3, human Notch3 NRR recombinant protein …; assay: ELISA, plate-coated recombinant protein
Description: Purified human or mouse Notch3 NRR recombinant proteins were coated on CoStar hi-bound 96-well ELISA plates in 100 μl of PBS with Mg/Ca at a concentration of 1 μg/ml overnight. The plates were washed with PBS-Mg/Ca and blocked for 1 hour with 1% BSA in PBS-Mg/Ca. Blocking solution was decanted from the plate and 1:3 serial dilutions of antibodies in blocking solutions were applied to the plate. After incubation at room temperature for 1 hour, plates were washed again with PBS-Mg/Can before HRP (horse radish peroxidase)-conjugated secondary antibody diluted (1:20,000) in blocking buffer was applied. When the primary antibody tested was rat IgG, the secondary antibody was goat anti-rat IgG Fc (Bethyl Biotech); and when the primary antibody was human IgG, the secondary antibody was goat anti-human IgG Fc (Southern Biotech).
After 1 hour incubation with the secondary antibody, plates were washed again, as described above, and TMB substrate solution was added. The developing reaction was allowed for 10 minutes before the stopping solution, 0.18M H₂SO₄, was added.

[5] = biological target: T3, human Notch3 NRR recombinant protein …; assay: SPR (Biacore T100), antibody captured on anti-human IgG-Fc, Notch3 NRR as analyte, 1:1 Langmuir fit
Description: The kinetic constants of the anti-Notch3 NRR interactions were determined by surface plasmon resonance (Biacore® T100, Biacore Inc., Piscataway, N.J.). Flow cells of a CM5 chip were immobilized with approximately 10,000 response units (RU) of anti-human IgG-Fc (Biacore®) in 10 mM Glycine, pH 5.0 at 10 μl/min for 600 seconds. […] Association of four concentrations of human Notch3 NRR recombinant protein (from 3.7-100 nM) and a zero concentration (running buffer) at 100 μl/min were recorded for 3 minutes in TBS with 1 mM CaCl₂. Dissociation of the complexes was measured for 10 minutes. The surface of the chip was regenerated by injecting 3M MgCl₂ with 3 mM EGTA for 60 seconds at 10 μl/min. Curves obtained after subtraction of the reference and buffer signals were fitted to a 1:1 Langmuir binding model with Biacore® T100 Evaluation Software (Biacore®).

[6] = biological target: T1, full-length human Notch3 expressed on …; assay: cell-based ELISA, U2OS/hNotch3 cells
Description: (§1) U-2 OS cells stably over-expressing human or mouse full length Notch3 protein on cell surface (hereinafter U2OS/hNotch3 and U2OS/mNotch3, respectively) were plated at 50,000 cells/well in 96 well plates (white opaque, BD/VWR) the day before ELISA assay. On the day of the ELISA, culture media was removed from wells and serially diluted (1:3 in blocking buffer) antibody solutions were applied to the plate. Plates were incubated at room temperature for 2 hours before being washed with PBS-Mg/Ca. HRP-conjugated secondary antibody was then applied and incubated with cells for 1 hour as described above for recombinant protein ELISA. Plates were washed with PBS-Mg/Ca before being developed with Pico-Chemiluminescent developing kit (Thermal Scientific), and chemiluminescence measurements were performed per manufacturer's instructions. Data plotting and analyses were performed with Microsoft Excel and Graphpad-Prism software.

human Notch1 NRR-Fc = biological target: T4, human Notch1 NRR-Fc (human, UniProt P46531 1446-1733, limits assumed); assay: ELISA: NRR-Fc protein coated at 1 ug/ml, antibody applied at 5 ug/ml, goat anti-human Fc-HRP, TMB, O.D. 450 nM
T4 construct: domain: NRR region; Made in CHO-PACE cells; not shown: human IgG1 Fc fragment
T4 sequence (looked up): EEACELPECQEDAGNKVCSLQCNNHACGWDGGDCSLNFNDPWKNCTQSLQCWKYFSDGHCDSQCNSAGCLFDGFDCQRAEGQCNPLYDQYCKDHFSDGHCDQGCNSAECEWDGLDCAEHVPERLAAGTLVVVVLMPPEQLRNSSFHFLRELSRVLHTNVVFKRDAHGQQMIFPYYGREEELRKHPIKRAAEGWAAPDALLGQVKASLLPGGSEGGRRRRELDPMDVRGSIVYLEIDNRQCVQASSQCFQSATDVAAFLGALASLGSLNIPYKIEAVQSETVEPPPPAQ

Notch3-NRR = Notch3-NRR (human); assay: as above
Description: After 1 hour of incubation, plates were washed with PBS with 0.9 mM Mg²⁺ and Ca²⁺, before secondary goat anti-human Fc antibody conjugated with HRP were applied and incubated on the plates. After washing again, the plates were developed with TMB and the developing reactions were stopped by adding 0.18M H₂SO₄.

[7] = biological target: T5, full-length mouse Notch3 expressed on the cell surface (mouse, UniProt Q61982 40-2318); assay: cell-based ELISA, U2OS/mNotch3 cells
T5 construct: whole, on cells; Over-expressed on U-2 OS cells; also called U2OS/mNotch3
T5 sequence (Q61982 40-2318): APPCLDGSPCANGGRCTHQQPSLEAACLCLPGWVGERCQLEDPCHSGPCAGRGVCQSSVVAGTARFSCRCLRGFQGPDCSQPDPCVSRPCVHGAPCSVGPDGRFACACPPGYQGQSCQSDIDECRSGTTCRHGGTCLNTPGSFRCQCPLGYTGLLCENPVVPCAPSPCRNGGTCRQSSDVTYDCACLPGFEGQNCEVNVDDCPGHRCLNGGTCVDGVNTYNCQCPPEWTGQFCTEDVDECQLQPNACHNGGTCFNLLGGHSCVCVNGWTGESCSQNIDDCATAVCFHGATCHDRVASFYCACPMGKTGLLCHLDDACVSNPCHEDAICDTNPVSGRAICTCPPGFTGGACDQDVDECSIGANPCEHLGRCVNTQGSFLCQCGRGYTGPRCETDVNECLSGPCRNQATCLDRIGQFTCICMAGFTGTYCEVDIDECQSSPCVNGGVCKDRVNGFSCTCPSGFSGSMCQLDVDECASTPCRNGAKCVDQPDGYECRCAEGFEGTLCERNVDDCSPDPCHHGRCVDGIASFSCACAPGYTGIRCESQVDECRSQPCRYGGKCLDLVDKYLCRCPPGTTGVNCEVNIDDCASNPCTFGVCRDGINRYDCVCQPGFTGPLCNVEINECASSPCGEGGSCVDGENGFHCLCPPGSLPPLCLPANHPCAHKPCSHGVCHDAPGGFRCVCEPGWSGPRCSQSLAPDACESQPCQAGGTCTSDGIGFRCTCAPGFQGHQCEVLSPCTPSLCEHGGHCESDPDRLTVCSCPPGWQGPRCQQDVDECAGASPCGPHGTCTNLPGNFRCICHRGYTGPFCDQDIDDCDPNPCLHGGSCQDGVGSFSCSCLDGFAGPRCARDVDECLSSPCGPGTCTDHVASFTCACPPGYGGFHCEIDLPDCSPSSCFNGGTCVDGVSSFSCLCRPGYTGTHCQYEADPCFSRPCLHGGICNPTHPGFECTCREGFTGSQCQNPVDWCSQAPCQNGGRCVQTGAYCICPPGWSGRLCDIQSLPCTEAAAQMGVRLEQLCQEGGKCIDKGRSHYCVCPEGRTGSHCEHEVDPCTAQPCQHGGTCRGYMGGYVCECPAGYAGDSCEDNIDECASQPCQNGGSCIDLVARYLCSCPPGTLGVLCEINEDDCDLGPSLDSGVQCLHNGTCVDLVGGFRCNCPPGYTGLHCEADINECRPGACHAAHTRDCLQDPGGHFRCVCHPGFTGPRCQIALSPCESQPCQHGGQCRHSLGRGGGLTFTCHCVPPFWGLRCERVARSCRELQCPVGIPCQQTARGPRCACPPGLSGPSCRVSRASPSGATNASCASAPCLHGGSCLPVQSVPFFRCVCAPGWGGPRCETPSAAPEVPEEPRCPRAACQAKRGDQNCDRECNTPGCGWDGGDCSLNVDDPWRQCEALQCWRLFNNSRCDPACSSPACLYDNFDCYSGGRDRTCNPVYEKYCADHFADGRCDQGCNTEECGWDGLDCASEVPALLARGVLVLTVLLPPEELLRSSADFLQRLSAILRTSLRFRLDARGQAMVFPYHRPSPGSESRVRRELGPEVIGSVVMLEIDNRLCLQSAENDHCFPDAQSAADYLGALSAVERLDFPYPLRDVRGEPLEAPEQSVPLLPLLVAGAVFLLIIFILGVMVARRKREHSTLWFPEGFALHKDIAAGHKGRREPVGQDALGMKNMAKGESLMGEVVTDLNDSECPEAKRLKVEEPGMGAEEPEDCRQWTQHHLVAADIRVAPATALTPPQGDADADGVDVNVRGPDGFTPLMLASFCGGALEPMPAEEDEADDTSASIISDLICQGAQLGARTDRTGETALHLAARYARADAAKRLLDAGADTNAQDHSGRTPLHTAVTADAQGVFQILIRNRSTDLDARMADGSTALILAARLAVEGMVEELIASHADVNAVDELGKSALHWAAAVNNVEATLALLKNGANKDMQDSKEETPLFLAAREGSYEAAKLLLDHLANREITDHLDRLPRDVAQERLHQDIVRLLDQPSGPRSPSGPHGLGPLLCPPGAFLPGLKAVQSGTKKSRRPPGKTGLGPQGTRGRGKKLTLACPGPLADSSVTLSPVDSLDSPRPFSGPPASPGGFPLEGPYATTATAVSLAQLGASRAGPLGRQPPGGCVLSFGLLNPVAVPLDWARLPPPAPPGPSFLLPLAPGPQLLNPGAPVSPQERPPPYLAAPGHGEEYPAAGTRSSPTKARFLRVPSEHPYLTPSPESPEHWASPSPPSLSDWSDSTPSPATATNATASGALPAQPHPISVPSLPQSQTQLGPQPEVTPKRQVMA
Description: as §1

[8] = biological target: T1, full-length human Notch3 expressed on …; assay: competition ELISA on U2OS/hNotch3 cells; competitor 0.8 nM biotinylated ch75
Description: (§2) 96 well cell culture plates were seeded with U2OS/hNotch3 cells (cell culture plate, Co-star). […] After incubation for 2 hours, the plates were washed, as described above, and HRP-conjugated streptavidin (Southern Biotech) diluted 1:5000 in blocking buffer was applied. After incubation with streptavidin for 30 minutes, the plates were washed again before being developed with TMB solution for 10 minutes. […] Data plotting and analyses were performed with Microsoft Excel and Graphpad-Prism software.

[9] = biological target: T1, full-length human Notch3 expressed on …; assay: cell-based ELISA, MDA-MB-468 cells; SD 0.063
Description: (§3) On the day of the ELISA, culture media was removed from wells and serially diluted (1:3 in DPBS with calcium chloride and magnesium chloride (Ca/Mg) and 1% BSA) antibody and ADC solutions were applied to the plate. Plates were incubated at room temperature for 2 hours before washed with DPBS with Ca/Mg and 1% BSA. HRP-conjugated secondary antibody was then applied and incubated with cells for 1 hour. Plates were washed with DPBS with Ca/Mg and 1% BSA before being developed with Pico-Chemiluminescent developing kit (Thermal Scientific), and chemiluminescence measurements were performed per manufacturer's instructions. Data plotting and analyses were performed with Microsoft Excel and Graphpad-Prism software.

[10] = biological target: T1, full-length human Notch3 expressed on …; assay: cell-based ELISA, U2OS/hNotch3 cells; SD 0.029
Description: as §3

[11] = biological target: T1, full-length human Notch3 expressed on …; assay: cell-based or functional assay; remark: listed apart in the source
[12] = biological target: T1, full-length human Notch3 expressed on …; assay: cell-based ELISA, HCC2429 cells; SD 0.025
Description: as §3

[13] = biological target: T1, full-length human Notch3 expressed on …; assay: cell-based or functional assay; remark: listed apart in the source
[14] = biological target: T1, full-length human Notch3 expressed on …; assay: competition ELISA on U2OS/hNotch3 cells; competitor 0.8 nM biotinylated ch28
Description: as §2

[15] = biological target: T1, full-length human Notch3 expressed on …; assay: cell-based ELISA, HCC2429 cells; SD 0.009
Description: as §3

[16] = biological target: T1, full-length human Notch3 expressed on …; assay: cell-based ELISA, U2OS/hNotch3 cells; SD 0.077
Description: as §3

[17] = biological target: T1, full-length human Notch3 expressed on …; assay: cell-based ELISA, MDA-MB-468 cells; SD 0.054
Description: as §3

T1 sequence (Q9UM47 40-2321): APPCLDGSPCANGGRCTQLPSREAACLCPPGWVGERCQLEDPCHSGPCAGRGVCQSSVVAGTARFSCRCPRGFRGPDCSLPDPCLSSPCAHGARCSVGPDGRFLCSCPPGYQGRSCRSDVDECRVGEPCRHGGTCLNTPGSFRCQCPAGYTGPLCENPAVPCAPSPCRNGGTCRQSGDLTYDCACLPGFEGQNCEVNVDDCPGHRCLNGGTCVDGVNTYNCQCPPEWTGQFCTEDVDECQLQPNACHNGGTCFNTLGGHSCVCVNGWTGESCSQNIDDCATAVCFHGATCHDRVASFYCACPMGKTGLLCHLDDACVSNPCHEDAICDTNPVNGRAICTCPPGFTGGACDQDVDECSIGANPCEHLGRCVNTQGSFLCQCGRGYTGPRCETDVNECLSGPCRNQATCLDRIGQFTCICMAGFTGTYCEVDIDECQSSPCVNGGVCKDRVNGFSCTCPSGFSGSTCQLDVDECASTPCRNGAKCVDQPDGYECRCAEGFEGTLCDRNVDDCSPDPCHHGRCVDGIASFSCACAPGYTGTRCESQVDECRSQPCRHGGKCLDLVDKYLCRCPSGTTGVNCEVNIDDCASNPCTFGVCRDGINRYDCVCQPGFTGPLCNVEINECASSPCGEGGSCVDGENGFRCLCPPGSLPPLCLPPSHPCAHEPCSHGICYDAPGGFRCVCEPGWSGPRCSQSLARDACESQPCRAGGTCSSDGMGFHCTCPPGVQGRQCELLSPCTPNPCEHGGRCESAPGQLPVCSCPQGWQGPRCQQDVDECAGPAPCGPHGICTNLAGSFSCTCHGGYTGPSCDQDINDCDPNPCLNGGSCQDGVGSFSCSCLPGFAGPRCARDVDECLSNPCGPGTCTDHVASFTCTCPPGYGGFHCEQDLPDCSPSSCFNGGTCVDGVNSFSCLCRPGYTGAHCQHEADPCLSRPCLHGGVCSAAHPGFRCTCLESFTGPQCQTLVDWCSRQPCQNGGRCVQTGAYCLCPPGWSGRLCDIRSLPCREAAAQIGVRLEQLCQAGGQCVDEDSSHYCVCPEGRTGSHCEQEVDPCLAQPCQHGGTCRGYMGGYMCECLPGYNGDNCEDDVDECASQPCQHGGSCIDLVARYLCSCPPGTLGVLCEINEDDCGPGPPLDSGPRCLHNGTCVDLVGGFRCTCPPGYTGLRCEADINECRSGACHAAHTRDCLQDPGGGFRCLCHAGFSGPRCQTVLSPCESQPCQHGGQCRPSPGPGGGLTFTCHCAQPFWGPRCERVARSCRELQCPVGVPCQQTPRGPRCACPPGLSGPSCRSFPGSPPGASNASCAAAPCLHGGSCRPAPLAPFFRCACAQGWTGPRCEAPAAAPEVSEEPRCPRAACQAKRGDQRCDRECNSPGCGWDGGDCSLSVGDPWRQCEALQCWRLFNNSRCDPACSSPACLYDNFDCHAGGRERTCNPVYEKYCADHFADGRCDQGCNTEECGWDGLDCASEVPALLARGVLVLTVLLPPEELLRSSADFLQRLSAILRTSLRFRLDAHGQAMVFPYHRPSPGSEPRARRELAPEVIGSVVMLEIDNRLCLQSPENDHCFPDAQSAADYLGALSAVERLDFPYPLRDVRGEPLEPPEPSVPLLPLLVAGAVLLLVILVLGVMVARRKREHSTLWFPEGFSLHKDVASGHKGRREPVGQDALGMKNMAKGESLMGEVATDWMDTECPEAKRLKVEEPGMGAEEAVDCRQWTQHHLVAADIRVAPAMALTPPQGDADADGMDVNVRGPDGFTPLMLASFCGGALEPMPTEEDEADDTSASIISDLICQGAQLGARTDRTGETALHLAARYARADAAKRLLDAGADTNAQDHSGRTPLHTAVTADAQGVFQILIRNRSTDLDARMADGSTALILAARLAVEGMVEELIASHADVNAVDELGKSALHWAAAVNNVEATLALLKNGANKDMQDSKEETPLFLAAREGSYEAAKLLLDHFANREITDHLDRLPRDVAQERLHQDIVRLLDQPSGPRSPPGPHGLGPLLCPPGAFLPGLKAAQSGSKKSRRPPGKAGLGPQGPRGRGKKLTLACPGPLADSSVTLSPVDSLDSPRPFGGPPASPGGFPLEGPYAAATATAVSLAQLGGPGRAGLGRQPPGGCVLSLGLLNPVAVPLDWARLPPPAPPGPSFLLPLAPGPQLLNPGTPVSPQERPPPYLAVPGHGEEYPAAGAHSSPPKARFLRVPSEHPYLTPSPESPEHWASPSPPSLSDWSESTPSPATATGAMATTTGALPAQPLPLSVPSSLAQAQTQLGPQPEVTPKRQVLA

B1: ch28-me0131 (Notch3-28-cG1-(C)_me-0#118) (antibody, V domains shown)
VH: EVQLVESGGGLVQPGRSLTLSCVASGFTFRDYGMTWIRQAPGKGLTWVAYISSGSNYIYYAEAVKGRFTISRDNAKNTLYLQMTSLRSEDTALYFCTRRGPFVLDAWGQGASVTVSS
VL: DIQMTQSPSFLSASVGDRVTINCKASQSINRYLHWFQQKLGEAPKLLIYNANGLQTGIPSRFSGSGSGTDFTLTISSLQSEDVATYFCLQHNTWPDTFGAGTKLELK
IC50 of cytotoxicity (MTS viability), HCC2429 cells [1]: 30 ng Ab/mL

B2: parental rat clone 28 (r28) (antibody, V domains shown)
VH: EVQLVESGGGLVQPGRSLTLSCVASGFTFRDYGMTWIRQAPGKGLTWVAYISSGSNYIYYAEAVKGRFTISRDNAKNTLYLQMTSLRSEDTALYFCTRRGPFVLDAWGQGASVTVSS
VL: DIQMTQSPSFLSASVGDRVTINCKASQSINRYLHWFQQKLGEAPKLLIYNANGLQTGIPSRFSGSGSGTDFTLTISSLQSEDVATYFCLQHNTWPDTFGAGTKLELK
notes: Rat monoclonal antibody from hybridoma, tested as hybridoma supernatant
O.D. 450 nM [2]: ≥ 1 O.D. 450 nM
O.D. 450 nM [3]: ≥ 1 O.D. 450 nM

B3: ch28-vc0101 (Notch3-28-cG1-(C)_mcValCitPABC-#54) (antibody, V domains shown)
VH: EVQLVESGGGLVQPGRSLTLSCVASGFTFRDYGMTWIRQAPGKGLTWVAYISSGSNYIYYAEAVKGRFTISRDNAKNTLYLQMTSLRSEDTALYFCTRRGPFVLDAWGQGASVTVSS
VL: DIQMTQSPSFLSASVGDRVTINCKASQSINRYLHWFQQKLGEAPKLLIYNANGLQTGIPSRFSGSGSGTDFTLTISSLQSEDVATYFCLQHNTWPDTFGAGTKLELK
IC50 of cytotoxicity (MTS viability), OVCAR3 cells [1]: 635 ng Ab/mL

B4: ch75-mc0131 (Notch3-75-cG1-(C)_mc-0#118) (antibody, V domains shown)
VH: QVKLLQSGAALVKPGASVKMSCKASGYAFTDYWVTWVKQSHGKSLEWIGEISPNSGGTNFNEKFKGKATLTVDKSTSTAYMELSRLTSEDSAIYYCTRGEIRYNWFAYWGQGTLVTVSS
VL: DIQMTQSPSSLSASVGDRVTITCKASQNVGNNIAWYQQKPGKAPKLLIYYASNRYTGVPSRFSGSGYGTDFTLTISSLQPEDFATYYCQRLYNSPFTFGGGTKVEIK
IC50 of cytotoxicity (MTS viability), OVCAR3 cells [1]: 289 ng Ab/mL
IC50 of cytotoxicity (MTS viability), U2OS/hNotch3 cells [1]: 19 ng Ab/mL

B5: ch75-me0131 (Notch3-75-cG1-(C)_me-0#118) (antibody, V domains shown)
VH: QVKLLQSGAALVKPGASVKMSCKASGYAFTDYWVTWVKQSHGKSLEWIGEISPNSGGTNFNEKFKGKATLTVDKSTSTAYMELSRLTSEDSAIYYCTRGEIRYNWFAYWGQGTLVTVSS
VL: DIQMTQSPSSLSASVGDRVTITCKASQNVGNNIAWYQQKPGKAPKLLIYYASNRYTGVPSRFSGSGYGTDFTLTISSLQPEDFATYYCQRLYNSPFTFGGGTKVEIK
IC50 of cytotoxicity (MTS viability), MDA-MB-468 cells [1]: 259 ng Ab/mL

B6: ch75-vc6780 (Notch3-75-cG1-(C)_mcValCitPABC-#112) (antibody, V domains shown)
VH: QVKLLQSGAALVKPGASVKMSCKASGYAFTDYWVTWVKQSHGKSLEWIGEISPNSGGTNFNEKFKGKATLTVDKSTSTAYMELSRLTSEDSAIYYCTRGEIRYNWFAYWGQGTLVTVSS
VL: DIQMTQSPSSLSASVGDRVTITCKASQNVGNNIAWYQQKPGKAPKLLIYYASNRYTGVPSRFSGSGYGTDFTLTISSLQPEDFATYYCQRLYNSPFTFGGGTKVEIK
IC50 of cytotoxicity (MTS viability), OVCAR3 cells [1]: 922 ng Ab/mL

B7: rat-human chimeric antibody 75 (ch75) (antibody, V domains shown)
VH: QVKLLQSGAALVKPGASVKMSCKASGYAFTDYWVTWVKQSHGKSLEWIGEISPNSGGTNFNEKFKGKATLTVDKSTSTAYMELSRLTSEDSAIYYCTRGEIRYNWFAYWGQGTLVTVSS
VL: NIVMTQSPKSMSISVGDRVTMNCKASQNVGNNIAWYQQKPGQSPKLLIYYASNRYTGVPDRFTGGGYGTDFTLTINSMQAEDAAFYYCQRLYNSPFTFGSGTKLEIK
notes: also called ch75-hIgG1; ch75-hulgG1
EC50 [4]: ≤ 1 nM
Kd [5]: 17.4 nM
koff [5]: 0.000992 s⁻¹
kon [5]: 57000 M⁻¹ s⁻¹
EC50 [6]: 0.2 nM
binding result (human Notch1 NRR-Fc): no binding (tested: 5 ug/ml)
O.D. 450 nM (ELISA, relative binding capacity) (Notch3-NRR): 1.72
binding result [7]: no binding
EC50 [8]: 1.3 nM

B8: ch75-mc3377 (Notch3-75-cG1-(C)_mc-#115) (antibody, V domains shown)
VH: QVKLLQSGAALVKPGASVKMSCKASGYAFTDYWVTWVKQSHGKSLEWIGEISPNSGGTNFNEKFKGKATLTVDKSTSTAYMELSRLTSEDSAIYYCTRGEIRYNWFAYWGQGTLVTVSS
VL: DIQMTQSPSSLSASVGDRVTITCKASQNVGNNIAWYQQKPGKAPKLLIYYASNRYTGVPSRFSGSGYGTDFTLTISSLQPEDFATYYCQRLYNSPFTFGGGTKVEIK
IC50 of cytotoxicity (MTS viability), MDA-MB-468 cells [1]: 560 ng Ab/mL

B9: hu28-vc0101 (Notch3-28-v1010-hG1-(C)_mcValCitPABC-#54) (antibody, human IgG1, kappa, V domains shown)
VH: EVQLVESGGGLVQPGGSLRLSCAASGFTFRDYGMTWVRQAPGKGLEWVAYISSGSNYIYYAEAVKGRFTISRDNAKNSLYLQMNSLRAEDTAVYYCARRGPFVLDAWGQGTLVTVSS
VL: DIQMTQSPSSLSASVGDRVTITCKASQSINRYLHWYQQKPGKAPKLLIYNANGLQTGVPSRFSGSGSGTDFTLTISSLQPEDFATYYCLQHNTWPDTFGGGTKVEIKR
modifications: vc0101 linker-payload on cysteine residues after partial reduction; sites not specified
notes: Antibody-drug conjugate of hu28
EC50 [9]: 0.273 nM
EC50 [10]: 0.266 nM
IC50 of cytotoxicity (MTS viability), HCC2429 cells, repeat 1 [11]: 473 ng Ab/mL
IC50 of cytotoxicity (MTS viability), HCC2429 cells, repeat 2 [11]: 2940 ng Ab/mL
IC50 of cytotoxicity (MTS viability), MDA-MB-468/hNotch3 cells, repeat 1 [11]: 3.2 ng Ab/mL
IC50 of cytotoxicity (MTS viability), MDA-MB-468/hNotch3 cells, repeat 2 [11]: 3 ng Ab/mL
IC50 of cytotoxicity (MTS viability), MDA-MB-468 cells [11]: 6540 ng Ab/mL
IC50 of cytotoxicity (MTS viability), OVCAR3 cells [11]: 306 ng Ab/mL
IC50 of cytotoxicity (MTS viability), U2OS/hNotch3 cells [11]: 1330 ng Ab/mL
EC50 [12]: 0.176 nM
IC50 of cytotoxicity, MDA-MB-468/hNotch3 cells, Notch3 siRNA (reduced Notch3 expression) [13]: 3340 ng Ab/mL
IC50 of cytotoxicity, MDA-MB-468/hNotch3 cells, control siRNA [13]: 3 ng Ab/mL

B10: hu28 (humanized r28 variant VH1.0/VL1.0) (antibody, human IgG1, kappa, V domains shown)
VH: EVQLVESGGGLVQPGGSLRLSCAASGFTFRDYGMTWVRQAPGKGLEWVAYISSGSNYIYYAEAVKGRFTISRDNAKNSLYLQMNSLRAEDTAVYYCARRGPFVLDAWGQGTLVTVSS
VL: DIQMTQSPSSLSASVGDRVTITCKASQSINRYLHWYQQKPGKAPKLLIYNANGLQTGVPSRFSGSGSGTDFTLTISSLQPEDFATYYCLQHNTWPDTFGGGTKVEIKR
notes: Human IgG1/kappa; also called hu28 VH1.0/VL1.0; hu28 VH1.0/V1.0
Kd [5]: 0.9 nM
koff [5]: 0.000347 s⁻¹
kon [5]: 386000 M⁻¹ s⁻¹
EC50 [6]: 0.093 nM
EC50 [14]: 3.1 nM
EC50 [15]: 0.132 nM
EC50 [16]: 0.172 nM
EC50 [17]: 0.192 nM
EC50 [7]: 0.13 nM
